Publication PMC11273609, “Single-Molecule Detection of the Encounter and Productive Electron Transfer Complexes of a Photosynthetic Reaction Center” (Journal of the American Chemical Society, 2024)

Key:
Conditions in all cases: both partners purified
[1] = target: T1, D(M184)K mutant RC-LH1 complex, His10-tag on the RC H-subunit (Rhodobacter sphaeroides, UniProt P0C0Y7 1-260; P0C0Y8 1-282; P0C0Y9 1-308; P0C0X9 1-55; P0C0Y1 7-49; P13402 1-82, D(M184)K); experiment: single-molecule force spectroscopy (AFM, PF-QNM); cyt c2-His6 on the AFM probe, His10-tagged RC-LH1 on the SiOx substrate; oxidized RC-LH1, oxidized cyt c2 (probe treated with 0.8 mM potassium ferricyanide); 10 mM HEPES pH 7.4, 10 mM NaCl
[2] = target: T2, N(M188)D mutant RC-LH1 complex, His10-tag on the RC H-subunit (Rhodobacter sphaeroides, UniProt P0C0Y7 1-260; P0C0Y8 1-282; P0C0Y9 1-308; P0C0X9 1-55; P0C0Y1 7-49; P13402 1-82, N(M188)D); experiment: as above
[3] = target: T3, wild-type reaction center-light harvesting complex 1 (RC-LH1), His10-tag on the RC H-subunit (Rhodobacter sphaeroides, UniProt P0C0Y7 1-260; P0C0Y8 1-282; P0C0Y9 1-308; P0C0X9 1-55; P0C0Y1 7-49; P13402 1-82); experiment: as above
[4] = target: T4, Q(L264)E mutant RC-LH1 complex, His10-tag on the RC H-subunit (Rhodobacter sphaeroides, UniProt P0C0Y7 1-260; P0C0Y8 1-282; P0C0Y9 1-308; P0C0X9 1-55; P0C0Y1 7-49; P13402 1-82, Q(L264)E); experiment: as above
[5] = target: T1, D(M184)K mutant RC-LH1 complex, …; experiment: single-molecule force spectroscopy (AFM, PF-QNM); cyt c2-His6 on the AFM probe via Ni2+-NTA and a PEG linker, His10-tagged RC-LH1 or RC-only complexes on a Ni2+-NTA SiOx substrate; oxidized RC, reduced cyt c2; 10 mM HEPES pH 7.4, 10 mM NaCl
[6] = target: T2, N(M188)D mutant RC-LH1 complex, …; experiment: as above
[7] = target: T3, wild-type reaction center-light …; experiment: as above
[8] = target: T4, Q(L264)E mutant RC-LH1 complex, …; experiment: as above

cumulative interaction probability [1]: 20%
cumulative interaction probability [2]: 37%
cumulative interaction probability [4]: 36%
cumulative interaction probability [5]: 24%
cumulative interaction probability [6]: 40%
cumulative interaction probability [8]: 39%
B1: cytochrome c2 (cyt c2), His6-tagged (natural protein)
chain: QEGDPEAGAKAFNQCQTCHVIVDDSGTTIAGRNAKTGPNLYGVVGRTAGTQADFKGYGEGMKEAGAKGLAWDEEHFVQYVQDPTKFLKEYTGDAKAKGKMTFKLKKEADAHNIWAYLQQVAVRP
notes: cytochrome c2 of Rhodobacter sphaeroides (gene cycA); the His6-tag follows the C-terminal residue Pro124; Carries a heme cofactor; used pre-reduced (dithionite and phenazine methosulfate) or pre-oxidized (ferricyanide), the redox state is told in the assay; also called reduced cyt c2; oxidized cyt c2; not shown: His6, C-terminal, kept
cumulative interaction probability [3]: 32%
cumulative interaction probability [7]: ~34%
